Patent EP0813419B1 (YEDA RESEARCH & DEVELOPMENT COMPANY, LTD., dated 2005)

B1: 'death domain' (DD) of human MORT-1 (residues 92-208) (other, not shown: large carriers)
chain: PGEEDLCAAFNVICDNVGKDWRRLARQLKVSDTKIDSIEDRYPRNLTERVRESLRIWKNTEKENATVAHLVGALRSCQMNLVADLVQEVQQARDLQNRSGAMSPMSWNSDASTSEAS
notes: Gal4 hybrid construct in yeast; also called HF1; MORT-1 DD
B2: 'death domain' (DD) of human TRADD (residues 195-312) (other, not shown: large carriers)
chain: PPPPAQTFLFQGQPVVNRPLSLKDQQTFARSVGLKWRKVGRSLQRGCRALRDPALDSLAYEYEREGLYEQAFQLLRRFVQAEGRRATLQRLVEALEENELTSLAEDLLGLTDPNGGLA
notes: Gal4 hybrid construct in yeast; also called TRADD DD

Legend:
[1] = molecular target: the molecule itself; experiment: yeast two-hybrid (Gal4 DBD and AD fusions, SFY526), beta-galactosidase filter assay; self-association
[2] = molecular target: B2; experiment: yeast two-hybrid (Gal4 DBD and AD fusions, SFY526), beta-galactosidase filter assay
[3] = molecular target: T1, intracellular domain of the human p75 TNF receptor (human, UniProt P20333 288-461, limits assumed); experiment: yeast two-hybrid specificity test (not shown)
T1 construct: domain: intracellular domain; construct not described; also called p75IC
T1 sequence (looked up): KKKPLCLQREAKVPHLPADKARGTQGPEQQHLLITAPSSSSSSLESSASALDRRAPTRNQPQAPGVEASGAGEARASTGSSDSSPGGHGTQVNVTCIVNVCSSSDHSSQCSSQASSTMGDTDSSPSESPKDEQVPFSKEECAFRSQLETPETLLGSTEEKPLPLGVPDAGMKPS

[4] = molecular target: B1; experiment: yeast two-hybrid specificity test (not shown)
[5] = molecular target: B2; experiment: yeast two-hybrid specificity test (not shown)

B1: no binding [1]; binds [2]; no binding [3].

B2: binds [1]; no binding [3].

B3: DD of the rat low-affinity NGF receptor (receptor, UniProt P07174 340-425, looked up)
chain: LPLTKREEVEKLLNGDTWRHLAGELGYQPEHIDSFTHEACPVRALLASWGAQDSATLDALLAALRRIQRADIVESLCSESTATSPV
notes: domain: DD; Two-hybrid control; construct not described
B3: no binding [4]; no binding [5].
